Consider one protein from article PMC12494544 (The Journal of Biological Chemistry, 2025).

This series concerns the molecule itself. Nature of the series: crystal structure; PseM (28-186) at 27 mg/ml; 0.1 M Mes monohydrate pH 7.0, 2.0 M NaCl, 1% benzamidine-HCl, 291 K; SAD, 2.0 Å, space group P4(3)2(1)2; homodimer in the asymmetric unit.

B1: N-terminal-truncated PseM (residues from 28 to 186) (enzyme)
chain: STGDYWIVYGKGERYNNEVFVANATGILQQPKGIQSAQIIQLFEDRSMPTLTAYEVQFKCKERRVRFDNARAMRRIDNVITNVKTVDGWIDPEKYDYWLQRSFAFVCAPAIRDNNQMLPLGKMPIARMVQTVQAMFVELQGVQAKKQTMRDLDAMLGNE
notes: PseM (PA0989), P. aeruginosa, residues 28 to 186, without the N-terminal signal peptide
Regarding B1, the “stoichiometry N” value worked out at 2.
